These results are taken from US20230151110A1 (HUTCHISON MEDIPHARMA, published 2023).

Numbering of substitutions follows the chain as printed. Names and notes keep the numbering of the source.

In assay [1] the target is CD47 on the surface of cynomolgus monkey B cells (cynomolgus monkey). As to the kind of experiment: FACS on cynomolgus monkey B cells, antibody 66.7 nM; negative control.
The target of assay [2] is T1, human CD47 protein on the cell surface (human, UniProt Q08722 19-323).
T1 construct: whole, on cells; One molecule is used for overexpressed (CHO-K1) and endogenous (Raji, Toledo, REC-1, red blood cells) human CD47; the cell is named under assay; also called CD47 on the surface of Raji, Toledo, REC-1 cells; CD47 on the surface of human red blood cells
As to the kind of experiment: FACS on Raji cells (endogenous human CD47); negative control.

Assay [3] deals with T1, human CD47 protein on the cell surface. As to the kind of experiment: FACS on REC-1 cells (endogenous human CD47); negative control.
Assay [4] has the same target. As to the kind of experiment: FACS on Toledo cells (endogenous human CD47); negative control.
In assay [5] the target is T2, CD47 on the surface of cynomolgus monkey B cells (cynomolgus monkey, UniProt A0A5F8AK49 19-323 (rhesus entry)).
T2 construct: whole, on cells; also called cynomolgus monkey CD47
As to the kind of experiment: FACS on cynomolgus monkey B cells, antibody 66.7 nM.
Source text: The cells were washed three times and analyzed by flow cytometry.

Assay [6] deals with T3, recombinant protein hCD47-Fc containing the extracellular domain of human CD47 fused with the Fc fragment of … (human, UniProt Q08722 19-139).
T3 construct: extracellular domain; Bought reagent; also called ACROBiosystems Cat: CD7-H5256; not shown: Fc fragment of human IgG
Briefly: competition ELISA: hCD47-Fc coated, SIRPα-His 2.5 µg/ml as competitor ligand, anti-His-HRP.

Assay [7] concerns the target T1, human CD47 protein on the cell surface. As to the kind of experiment: FACS on Raji cells (endogenous human CD47), n = 3.
Procedure: (§1) Human CD47 was endogenously expressed on the cell surface of human Burkitt lymphoma cell line Raji. […] The diluted antibodies were mixed with and co-incubated with Raji cells (purchased from ATCC) (5*10⁵ cells/well) at 4° C. for 1 hour. […] The cells were washed three times with PBS containing 2% fetal bovine serum (FBS), and then the fluorescence signal was detected by CantoII (BD Biosciences) flow cytometry, and according to the average fluorescence intensity (MFI) of the signal, GraphPad was used for fitting a concentration dependent curve, and the EC₅₀ was calculated.
Assay [8] has the same target. Briefly: FACS on CHO-K1 cells overexpressing human CD47.
Procedure: A human CD47 protein (NCBI accession number: NP_001768.1) was overexpressed in hamster ovary cell line CHO-K1 to establish CHO-K1 cell line overexpressing the human CD47 protein. […] After washing twice with iced PBS, the cells were incubated with an iFluor647-labeled goat anti-mouse IgG (H+L) antibody (Genscript) at 4° C. in the dark for 40 minutes. The cells were washed twice with iced PBS, and then the fluorescence signal was detected by Calibur (BD Biosciences) flow cytometry, and according to the average fluorescence intensity (MFI) of the signal, GraphPad was used for fitting a concentration dependent curve, and the EC₅₀ was calculated.
Assay [9] has the same target. As to the kind of experiment: FACS on REC-1 cells (endogenous human CD47).
Procedure: as §1
Assay [10] shares this target. As to the kind of experiment: FACS on Toledo cells (endogenous human CD47).
Procedure: as §1
The target in assay [11] is T4, human CD47-His fusion protein (human, UniProt Q08722 19-139).
T4 construct: Bought reagent; also called ACROBiosystems Cat: CD7-H5227; not shown: His tag
Briefly: SPR (Biacore T200): antibody captured by anti-human Fc on CM5, human CD47-His as analyte, 1:1 Langmuir fit.

Assay [12] deals with T1, human CD47 protein on the cell surface. As to the kind of experiment: FACS on human red blood cells (endogenous CD47).
Procedure: The cells were washed three times with PBS containing 2% fetal bovine serum (FBS), and then the fluorescence signal was detected by Canto II (BD Biosciences) flow cytometry. According to the average fluorescence intensity (MFI) of the signal, GraphPad was used for fitting a concentration dependent curve, and the EC₅₀ was calculated.
The target in assay [13] is T3, recombinant protein hCD47-Fc containing …. Briefly: competition ELISA as in Example 1.3: hCD47-Fc coated, SIRPα-His as competitor ligand, anti-His-HRP.
Procedure: The recombinant protein hCD47-Fc containing the extracellular domain of human CD47 fused with the Fc fragment of human IgG (ACROBiosystems, Cat: CD7-H5256) was coated onto a 96-well plate and incubated overnight at 4° C. After the plate was washed 3 times with PBST (PBS containing 0.5% Tween-20), PBST containing 1% BSA was added for blocking the plate for 2 hours. […] After the 96-well plate was incubated at 37° C. for 30 minutes, the plate was washed 5 times with PBST, and a TMD (Surmodics, Cat: TMBW-1000-01) developing solution was added, and was incubated in the dark for 15 minutes. 2N H₂SO₄ was added to terminate the color-developing reaction. OD₄₅₀ was read on a microplate reader.
The target in assay [14] is T1, human CD47 protein on the cell surface. As to the kind of experiment: FACS on Raji cells (endogenous human CD47).
Procedure: as §1

For the molecule “negative isotype control antibody (isotype), human IgG4P”, the Max MFI was found to be 53 MFI in assay [1], 175 MFI in [2], 265 MFI in assay [3] and 50 MFI in assay [4].

B1: chimeric antibody Ch-125G4-m35 (antibody, V domains shown)
VH: QVQLQQSGTELAKPGASVKMSCKASGYTFTSYYMHWVKQRPGQILEWIGYIDPANDYSDYNQNFKDKATLTADKSSRTTYMQLTSLTSEDSAVYYCARLGYGQSSPFDYWGQGTTLIVSS
VL: DIKMTQSPSSMYASVGERVTITCKASQDIHNYLSWFQQKPGKSPKTLIYRAKRLVEGVPLRFSGSGSGQDYSLTISSLEYEDMGIYFCLQYDELYTFGGGTRLEIK
notes: Chimeric antibody with human IgG4 (S228P) heavy chain constant region and human kappa light chain constant region; PTM sites mutated (NSS to QSS in the heavy chain, DG to EG in the light chain); also called Ch-125G4m-m35; 125G4A4m
Take B1: in assay [5], the “Max MFI” value came out at 4550 MFI and the “Max MFI compared with Ch-125G4m-m35 value, %” value (“Max MFI … %” below) is 100%.

B2: hybridoma-derived antibody 125G4A4 (antibody, V domains shown)
VH: B1 VH with Q103N
VL: B1 VL with E56D
notes: Mouse antibody purified from hybridoma supernatant on Protein A
Take B2: in assay [6], the IC50 came to 3.06 nM. The EC50 was 0.84 nM in assay [7] and 0.22 nM in [8].

B3: Hu-125G4A4m-43 (antibody, V domains shown)
VH: QVQLVQSGAEVKKPGSSVKVSCKASGYTFTSYYMHWVRQAPGQGLEWMGYIDPANDYSDYNQNFKDRVTITADKSTRTTYMELTSLRSEDTAVYYCARLGYGQSSPFDYWGQGTTVTVSS
VL: DIQMTQSPSSLSASVGDRVTITCKASQDIHNYLSWFQQKPGKAPKSLIYRAKRLVEGVPSRFSGSGSGQDYTLTISSLQPEDFATYYCLQYDELYTFGQGTRLEIK
notes: Humanized antibody, IgG4 S228P (IgG4P) subtype
In the case of B3, in assay [5], the “Max MFI” value is 3260 MFI and the “Max MFI … %” value was 72%.

B4: Hu-125G4A4m-44 (antibody, V domains shown)
VH: B3 VH
VL: B3 VL with Q3K, S46T, S60L, Y87F
notes: as for B3
Take B4: in assay [5], the “Max MFI” value was found to be 4510 MFI and the “Max MFI … %” value was 99%.

B5: Hu-125G4A4m-50 (antibody, V domains shown)
VH: B3 VH with V68A, I70L
VL: B3 VL with Q3K, S46T, S60L, Y87F
notes: as for B3
Take B5: in assay [5], the “Max MFI” value is 4840 MFI and the “Max MFI … %” value turned out to be 106%.

B6: humanized antibody HMA02h14-48 (antibody, V domains shown)
VH: B3 VH with V68A, I70L
VL: B3 VL with Q69T
notes: Humanized antibody, IgG4 S228P (IgG4P) subtype; also called Hu-125G4A4m-48; Hu-125G4A4-48
B6: the EC50 was 0.6 nM in assay [9], 2.2 nM in assay [10], 3.9 nM in assay [12] and 1.2 nM in assay [14]. Moreover, the Kd in [11] was determined as 0.777 nM. For the same molecule, the IC50 in assay [13] came out at 1.58 nM. Also, the “Max MFI” value in assay [5] was determined as 4200 MFI. Further, the “Max MFI … %” value in assay [5] was 92%.

B7: Hu-125G4A4m-45 (antibody, V domains shown)
VH: B3 VH with T79A
VL: B3 VL with Q69T
notes: as for B3
Consider B7, for which, in assay [5], the “Max MFI” value came out at 2630 MFI and the “Max MFI … %” value turned out to be 58%.

B8: Hu-125G4A4m-49 (antibody, V domains shown)
VH: B3 VH with V68A, I70L
VL: B3 VL
notes: as for B3
Consider B8, for which, in assay [5], the “Max MFI” value turned out to be 4080 MFI and the “Max MFI … %” value was 90%.

B9: Hu-125G4A4m-47 (antibody, V domains shown)
VH: B3 VH with T79A
VL: B3 VL with Q3K, S46T, S60L, Y87F
notes: as for B3
On to B9, for which, in assay [5], the “Max MFI” value came out at 4100 MFI and the “Max MFI … %” value was 90%.

B10: Hu-125G4A4m-46 (antibody, V domains shown)
VH: B3 VH with T79A
VL: B3 VL
notes: as for B3
Consider B10, for which, in assay [5], the “Max MFI” value was 2520 MFI and the “Max MFI … %” value worked out at 55%.

B11: control antibody Hu5F9 (antibody, V domains shown)
VH: QVQLVQSGAEVKKPGASVKVSCKASGYTFTNYNMHWVRQAPGQRLEWMGTIYPGNDDTSYNQKFKDRVTITADTSASTAYMELSSLRSEDTAVYYCARGGYRAMDYWGQGTLVTVSS
VL: DIVMTQSPLSLPVTPGEPASISCRSSQSIVYSNGNTYLGWYLQKPGQSPQLLIYKVSNRFSGVPDRFSGSGSGTDFTLKISRVEAEDVGVYYCFQGSHVPYTFGQGTKLEIK
For B11, in assay [5], the “Max MFI” value came out at 4120 MFI and the “Max MFI … %” value is 90%.
